Results as given in US8058240B2, “Biological active ligands of melanocortin receptors” (University of Florida Research Foundation, Inc., priority 2006, dated 2011).
Blank lines part the entries; values can stand above or below the compound they belong to. Ends that are not written are not given here.

Legend:
[1] = tested on: polymorphic hMC4Rs; assay: cAMP based functional bioassay, summary statements for the polymorphic hMC4Rs as a group; type: cell-based, human
[2] = biological target: T1, C271Y hMC4R (Homo sapiens, UniProt P32245, C271Y); assay: cAMP based functional bioassay, agonist stimulation, stably transfected HEK-293 cells; type: cell-based
T1 construct: expressed in transfected cells

[3] = biological target: T2, S58C hMC4R (Homo sapiens, UniProt P32245, S58C); assay: as above; type: cell-based; conditions: S58C hMC4R as printed; at up to 10^−5 M concentrations
T2 construct: expressed in transfected cells

[4] = biological target: T3, L106P hMC4R (Homo sapiens, UniProt P32245, L106P); assay: as above; type: cell-based; conditions: HEK293, L106P hMC4R, read-out: stimulation (maximal stimulation less than the forskolin control level)
T3 construct: expressed in transfected cells

[5] = biological target: T1, C271Y hMC4R; assay: cAMP based functional bioassay, antagonist Schild analysis against agonist MTII; type: cell-based; conditions: ± SEM
[6] = biological target: T4, I102S hMC4R (Homo sapiens, UniProt P32245, I102S); assay: as above; type: cell-based; conditions: ± SEM
T4 construct: expressed in transfected cells

[7] = biological target: T5, I137T hMC4R (Homo sapiens, UniProt P32245, I137T); assay: as above; type: cell-based; conditions: ± SEM
T5 construct: expressed in transfected cells

[8] = biological target: T2, S58C hMC4R; assay: as above; type: cell-based; conditions: ± SEM
[9] = biological target: T6, G252S hMC4R (Homo sapiens, UniProt P32245, G252S); assay: as above; type: cell-based; conditions: ± SEM
T6 construct: expressed in transfected cells

[10] = biological target: T7, V253I hMC4R (Homo sapiens, UniProt P32245, V253I); assay: as above; type: cell-based; conditions: ± SEM
T7 construct: expressed in transfected cells

[11] = biological target: T8, wild type (WT) hMC4R (Homo sapiens, UniProt P32245); assay: as above; type: cell-based; conditions: ± SEM
T8 construct: expressed in transfected cells

[12] = biological target: T9, R165Q hMC4R (Homo sapiens, UniProt P32245, R165Q); assay: as above; type: cell-based; conditions: ± SEM
T9 construct: expressed in transfected cells

[13] = biological target: T10, I301T hMC4R (Homo sapiens, UniProt P32245, I301T); assay: as above; type: cell-based; conditions: ± SEM
T10 construct: expressed in transfected cells

[14] = biological target: T11, S127L hMC4R (Homo sapiens, UniProt P32245, S127L); assay: as above; type: cell-based
T11 construct: expressed in transfected cells

[15] = biological target: T3, L106P hMC4R; assay: as above; type: cell-based; conditions: ± SEM
[16] = biological target: T12, N97D hMC4R (Homo sapiens, UniProt P32245, N97D); assay: as above; type: cell-based
T12 construct: expressed in transfected cells

[17] = biological target: T13, T150I hMC4R (Homo sapiens, UniProt P32245, T150I); assay: as above; type: cell-based; conditions: ± SEM
T13 construct: expressed in transfected cells

[18] = biological target: T14, R165W hMC4R (Homo sapiens, UniProt P32245, R165W); assay: as above; type: cell-based; conditions: ± SEM
T14 construct: expressed in transfected cells

[19] = Schild analysis, agonist MTII, ± SEM

agonist EC50 potency ([1]; at all these polymorphic hMC4Rs): sub nM to mM
Compound: C[C@@H]1NC(=O)[C@H](CC(N)=O)NC(=O)[C@H](Cc2c[nH]c3ccccc23)NC(=O)[C@H](CCCNC(=N)N)NC(=O)[C@@H](Cc2ccccc2)NC(=O)[C@H](Cc2c[nH]cn2)NC(=O)[C@@H](NC(=O)[C@@H](N)Cc2ccc(O)cc2)CSSC[C@@H](C(=O)N[C@@H](Cc2ccc(O)cc2)C(N)=O)NC(=O)[C@H](Cc2ccccc2)NC1=O [AMW3-130, Tyr-c[Cys-His-DPhe-Arg-Trp-Asn-Ala-Phe-Cys]-Tyr-NH2]
agonist function at these hMC4Rs ([1]; eleven human MC4R polymorphisms): rescue

response stimulated ([2]; C271Y hMC4R): maximal response
Compound: CSCC[C@H](NC(=O)[C@H](CCCNC(=N)N)NC(=O)[C@H](Cc1ccc(O)cc1)NC(=O)[C@@H]1CCCN1C(=O)CNC(=O)[C@H](CCC(=O)O)NC(=O)[C@H](CC(=O)O)NC(=O)[C@H](CCCCN)NC(=O)[C@H](CCCCN)NC(=O)[C@H](CCC(=O)O)NC(=O)[C@H](C)N)C(=O)N[C@@H](CCC(=O)O)C(=O)N[C@@H](Cc1c[nH]cn1)C(=O)N[C@@H](Cc1ccccc1)C(=O)N[C@@H](CCCNC(=N)N)C(=O)N[C@@H](Cc1c[nH]c2ccccc12)C(=O)NCC(=O)N[C@@H](CO)C(=O)N1CCC[C@H]1C(=O)N1CCC[C@H]1C(=O)N[C@@H](CCCCN)C(=O)N[C@@H](CC(=O)O)C(=O)O [β-MSH]

ability to stimulate this receptor [3]: inability | Emax at 1 µM [4]: 40 to 50% | Emax at 1 µM ([2]; HEK293, C271Y hMC4R, at 1 μM, read-out: stimulation (maximal stimulation less than the forskolin control level)): 42 to 58%
Compound: SYSMEHFRWGKPVGKKRRPVKYPN [ACTH(1-24)]

Antagonist pA2 [5]: 8.45 ± 0.03 | Antagonist pA2 [6]: 8.17 ± 0.10 | Antagonist pA2 [7]: 8.33 ± 0.12 | Antagonist pA2 [8]: 8.02 ± 0.13 | Antagonist pA2 [9]: 8.53 ± 0.02 | Antagonist pA2 [10]: 8.41 ± 0.17 | Antagonist pA2 [11]: 8.28 ± 0.11 | Antagonist pA2 [12]: 8.57 ± 0.06 | Antagonist pA2 [13]: 8.60 ± 0.07 | antagonist potency relative to the wild type control [14]: statistically significant decreased | Antagonist pA2 [14, 19]: 7.06 ± 0.16 | Antagonist pA2 [15]: 8.27 ± 0.12 | antagonist potency relative to the wild type control [16]: statistically significant decreased | Antagonist pA2 [16, 19]: 7.44 ± 0.11 | Antagonist pA2 [17]: 8.34 ± 0.06 | Antagonist pA2 [18]: 8.52 ± 0.17
Compound: hAGRP(87-132): endogenous C-terminal antagonist agouti-related protein ligand, purchased from Peptides International
